These results are taken from US20070105162A1, “Monovalent avidin and streptavidin compositions” (Massachusetts Institute of Technology, priority 2005, published 2007).

Series [1] concerns biotinylated AP-CFP-TM on HeLa cells. The series can be described thus: Staining of biotinylated AP-CFP-TM on HeLa with Alexa Fluor 568-conjugated avidins. It is filed as cell-based. The conditions noted are these: avidin, Alexa Fluor 568 conjugate. The procedure:
Enzymatic biotinylation and imaging of HeLa transfectants are performed as previously described (Howarth, M. et al., Proc. Natl. Acad. Sci. USA 102: 7583-7588, 2005), except instead of 10 μM biotin and 1 mM ATP, we add 10 μM biotin-AMP (synthesized according to Coleman and Huang; Coleman, T. M. and Huang, F. Chem. Biol. 9: 1227-1236, 2002) to give equivalent biotinylation but minimizing the risk of purinoreceptor activation by ATP (Rathbone, M. P. et al., Prog. Neurobiol. 59: 663-690, 1999). […] Biotinylation of neurons is performed at day in vitro (DIV) 8 in Hanks' Balanced Salt Solution (HBSS) (Invitrogen) with 0.2 μM biotin ligase and 10 μM biotin-AMP for 5 min at 37° C. […] Neurons are washed with NeuroBasal media (Invitrogen) supplemented with B-27 (Invitrogen), 50 U/mL penicillin, 50 μg/mL streptomycin, and 0.2 mM L-glutamine and chased in the same medium for 0 or 2 hr at 37° C. Cells are then fixed in −20° C. methanol. There was no signal from wild-type avidin labeling if neurons were instead transfected with Ala-neuroligin-1 containing a point mutation in AP, confirming the specificity of labeling. […]
Images of HeLa cells are collected on a Zeiss Axiovert 200M inverted epifluorescence microscope using a 40× oil-immersion lens and a MicroMAX CCD camera (Roper Scientific; Tucson, Ariz.). CFP (420DF20 excitation, 450DRLP dichroic, 475DF40 emission) and Alexa568 (560DF20 excitation, 585DRLP dichroic, 605DF30 emission) images are collected and analyzed using OpenLab software (Improvision; Lexington, Mass.). Fluorescence images are background-corrected. […] Images are scaled to 16 bits and analyzed in Northern Eclipse (Empix Imaging; Ontario, Canada) with user-written software. […] Results are then calculated in terms of clusters per micrometer of dendrite. For assessment of pre-synaptic terminals, clusters are determined as before and average grey levels of clusters are compared between transfected dendrites and untransfected dendrites within the same field of view. […] “n” represents the number of transfected neurons for which clusters were measured. […]

Series [2] can be described thus: Electrospray ionization mass spectrometry: biotin molecules bound per avidin tetramer. In kind it is binding. The conditions noted are these: spectra with or without biotin. The procedure:
Biospin columns (Bio-Rad) are equilibrated by spinning 5 times in 500 μL of 15 mM ammonium acetate pH 7.8 at 1000 g for 2 min. Then 30-50 μL of 30 μM protein in PBS is buffer-exchanged into 15 mM ammonium acetate pH 7.8 using the pre-equilibrated Biospin columns by spinning for 20 s at 1000 g. To ensure that PBS is completely removed, the flow-through is again buffer-exchanged with a second pre-equilibrated column for 20 s. This procedure also removes free biotin when the starting 30 μM avidin forms are incubated with 200 μM biotin. Less than 2 min before introducing into the mass spectrometer, the buffer-exchanged samples are diluted with a solution of 1:1 15 mM ammonium acetate pH 7.8 and 78% acetonitrile, 0.01% trifluoroacetic acid.
An Advion nanospray robot (Advion BioSystems, Ithica, N.Y.) with a back-pressure of 0.45 Psi introduces the samples into the mass spectrometer, an 8.5 Tesla custom-built Electrospray Ionisation-Fourier Transform Mass Spectrometer. To visualize the non-covalent tetramers and non-covalent biotin binding in the high m/z range, the following settings are used: Chirp rate=750 Hz, Amplitude=0.5 V p-p, Tube lens=200 V, Capillary heater 2 V, Quad filter=−20 V, Skimmer=0 V, Capillary offset=34 V, X-fer=−110 V, Leak gas=4.2×10^−5 Torr. The capillary heater is kept low and the Quad filter and Skimmer are kept either high or off to prevent subunit dissociation. The transfer is set to this low value of −110 V in order to visualize the high m/z region.
The masses are calculated manually by first determining the charge state. The final mass is determined by multiplying the observed m/z by the charge and subtracting the mass corresponding to the addition of protons to give that charge. This calculation is repeated for each charge state and the mean and standard deviation reported. The spectra are calibrated with tetrameric avidin, after its monomer mass is determined under denaturing conditions. […]

“A1D3: Monovalent streptavidin tetramer: one His6-tagged wild-type (A) subunit and three dead (D) subunits [Tetramer A1D3]”: the “Alexa staining of biotinylated AP-CFP-TM” value in series [1] is “detected equally well”. In addition, the “biotin binding per avidin tetramer by mass spectrometry (in words)” value in series [2] is reported as “single biotin”.

As for “D4: Streptavidin tetramer with 4 dead subunits (D: N23A, S27D, S45A, SEQ ID NO:3) [Tetramer D4]”, in series [1], the “Alexa staining of biotinylated AP-CFP-TM” value is reported as “no detectable staining”. For the same substance, the “biotin binding per avidin tetramer by mass spectrometry (in words)” value in series [2] is reported as “No biotin binding”.
